{"source": "paper PMC10802472", "about": "(bioRxiv, 2024)", "proteins": {"B1": {"name": "ACAD11 K* mutant (kinase-inactive mouse ACAD11) (enzyme, UniProt Q80XL6 1-779, looked up)", "chain": "METDVTSDTVEVLPQHKFDLRSLEAYLNQHLPGFGSDSRAVLTVTQYRSGQSNPTFFLQKGSQAYVLRKKPPGSLLPKAHKIDREFKIQKALFSIGFPVAKPLLYCRDASVIGTEFYVMEHVQGRIFRDFSIPGVSSAERAAIYVSVAETLAWLHSLDIRSLKLDKYGTGVGYCKRQVSTWTKQYQASAHQSIPAMDQLSTWLMKNLPDSDSEECLVHGAFKLDNIVFHPKECRVIAVLDWELSTFGHPLTDLAHLSLFYYWPRTLPMINRGSHIPENTGIPLMEELISIYCHRRGIDPNLPNWNFFMALSFFKLAGISQGVYRRYLMGNNSSEDSFLTANTVQPLAETGLQLSKRTLRTTPPQADAKSQLFAQSRRGQEVLTRVKQFMKQHVFPAEKEVAEYYAQSGNSAEKWGHPLVIEKLKEMAKAEGLWNLFLPAVSGLSQVDYALIAEETGKCFFAPDVFNCQAPDTGNMEVLHLYGSEQQKKQWLEPLLRGDITSVFCMTEPNVSSSDATNIECTIQRDGGGYIVNGKKWWSSGAGNPKCKIAIVLGRTESPSASRHRQHSMILVPMDTPGVELIRPLSVFGYMDNMHGGHWEVHFNHVRVPASNLILGEGRGFEISQGRLGPGRIHHCMRTVGLAERILQIMCDRAVQREAFKKKLYEHEVVAHWIAKSRIAIEEIRLLTLKAAHSIDTLGSASARKEIAMIKVAAPKAVCKIADWAIQVHGGAGVSQDYPLANMYAIIRTLRLADGPDEVHLSAIAKMELQDQARRLTARM"}, "B2": {"name": "ACAD11 A* mutant (ACAD-inactive mouse ACAD11) (enzyme, UniProt Q80XL6 1-779, looked up)", "chain": "B1 chain with A220D, D753N"}}, "molecular_target": "the molecule itself", "assay": "cryo-EM structure", "note": "Changes are numbered by the printed parent chain."}
{"protein": "B1", "values": [{"measurement": "stoichiometry N", "result": 4}]}
{"protein": "B2", "values": [{"measurement": "stoichiometry N", "result": 4}]}
